Test results from patent US12371675B2, “Process and microorganism for synthesis of adipic acid from carboxylic acids” (THE GOVERNING COUNCIL OF THE UNIVERSITY OF TORONTO, priority 2015, dated 2025).

B1: SCO0229: aldehyde reductase (AR) from Streptomyces coelicolor (protein)
chain: MQRQNWLITGVSTGLGRAFAQAALSAGHTVVGTVRSENDVRAFEELGPGHAHGRILDVTDGGAVNGVVAEVERSVGPLDVVVANAGYGLEGTFEETPLAEVRRQFDVNVFGAMATLQAALPHMRARRRGHLMAVTSMGGLMAVPGMSAYCGSKFALEGILEALGKEVAQFGIHVTAIEPGSFRTDWAGRSMTRAARTVADYDDLFAPIREARQKASGNQLGNPAKAGEAVVHITSVDQPPAHLVLGSDALRLVTAARTAVDEDIRAWEALSRTTDFPQGAQL
B2: Atu2528: aldehyde reductase (AR) from Agrobacterium fabrum (protein)
chain: MQPFVYMAAPARIVFSAGSSADVAEEIRRLGLSRALVLSTPQQKGDAEALASRLGRLAAGVFSEAAMHTPVEVTKTAVEAYRAAGADCVVSLGGGSTTGLGKAIALRTDAAQIVIPTTYAGSEVTPILGQTENGVKTTMRGPEILPEVVIYDAELTLGLPVAISMTSGLNAMAHAAEALYARDRNPIASMMAVEGLRAMIEALPVVRQAPHDIGARETALYGAWLCGTVLGAVGMSLHHKLCHTLGGSLDLPHAETHAVLLPHTIAYVEEAAPNLLAPLAALVGGRAGAGLFDFAARLGAPSSLAALGVGADDLDPMAELATANPYWCPRPIEKTAIRDLLQRAFEGARPA
B3: RPA0021: aldehyde reductase (AR) from Rhodopseudomonas palustris (protein)
chain: MTPRNATVAVIGAGDYIGAEIAKKFAAEGFTVFAGRRNGEKLAPLVAEIEAAGGRIVARSLDARNEDEVTAFLNAADAHAPLEVTIFNVGANVNFPILETTDRVFRKVWEMACWAGFVSGRESARLMLAHGQGKIFFTGATASLRGGSGFAAFASAKFGLRAVAQSMARELMPKNIHVAHLIIDSGVDTAWVRERREQMFGKDALANPDLLMPPAAVAGAYWQLYQQPKSAWTFEMEIRPYGEKW
B4: TM_0111: aldehyde reductase (AR) from Thermotoga maritima (protein)
chain: MFKISFYLPTEIIFRVGAVDELEERAKKLGKKALIVTGRSSTKKTGLLQRVVDLLKKAGVESFVFDKIVPNPISDHVDEAAEIVRKEKIDFIIGLGGGSPIDSAKAISITAPNEGKFWDYVPVGGGKIPEKSIPVVAIPTTHGTGTEADPFAVITNPQTKEKVGIGYRNTFPVLSLVDPEVMKTLPKDQTAYTSMDAFYHAIEAFLNVNANPYSDVLALDAMKRIVTYLPVAYENGEDMEARTNLAWASTEAGITETLTGVIANHALEHGLSGFYPEITHGLGLCITGPYLFEYIFDHAYERLAIVGREVFGVYETDDRKAGRLAIKKLRDFQEMFGLNKRLSELGVKKEDIPKMAETGYRILNGVVVVTPGNLTAKDMEEIFNRCY
B5: SFyv_1886: aldehyde reductase (AR) from Shigella flexneri (protein)
chain: MHYQPKQDLLNDRIILVTGASDGIGREAAMTYARYGATVILLGRNEEKLRQVASHINEETGRQPQWFILDLLTCTSENCQQLAQRIVVNYPRLDGVLHNAGLLGDVCPMSEQNPQVWQDVMQINVNATFMLTQALLPLLLKSDAGSLVFTSSSVGRQGRANWGAYAASKFATEGMMQVLADEYQQRLRVNCINPGGTRTAMRASAFPTEDPQKLKTPADIMPLYLWLMGDDSRRKTGMTFDAQPGRKPGISQ
B6: RHA1_ro08443: aldehyde reductase (AR) from Rhodococcus jostii (protein)
chain: MPEIVKFEMPRVETVVQGVGAVREIGAELDRRDLKRVFLVTGHSVGSSEAFAALASDLGDRVVGIFDQVKAHNPVELIVELITAAKSAQAEAFVAVGGGSPVDAAKLAAIGLCEGSESVEDLARNYLVFEYPNTIHQKPLTGTPMPVFAVPTTLSAAEWDGFAGSVDHTRDTKDLTVYLEATPQVVFLDPEFCAHTPRDLWATTGVRALDHAVETAYAKNAHPFTTALANGALTMLAENLPRSVKDPHDYDAALKCLEAAWMSIIGVHNVSLGLSHAIGHQLGAVGIPHGVTSCIMLPHVMRFLEPVTSAEQARMAQSLAQVQGDGEDLPAADRLERILDELGVPRRVSEFGVGRDKMDGVARATLGDIVVRESPRPVDETVVYGLLETVW
B7: SM2011_b20379: aminotransferase (AT) from Sinorhizobium meliloti (protein)
chain: MNDRPNSLHALDKQSLVHPYTNLAVHQETGPHVITGGDGIYVVDDEGKRYIEGLAGLFCAGLGFSEQRLVEAATRQLKTMPFYHSFAHKSTEPGIRLAEKLLSIAPVPMSKVFFAGSGSEANDTAIKLIWYYNNALGRPEKKKIISRRKAYHGVTVATASLTGLPFNHRDFDLPIANILHTDCPHYWRFAETGETEEDFATRMANNLEAIILEEGPETIAAFFAEPVMVSGGVITPPKTYFEKVQAVLRKYDILLIADEVICGFGRTGNMFGSETYGLKPDMISCAKQLSAAYMPISALMINAKIADALVDQSRKIGTFSHGFTYGGHPVAAAVALEALTIYEEIDIVGHVRSVAPAFQDRVRKLGEHPLIGEARGVGLVAGLEFVKDKATRENFPPAWQVANQAGKFATARGVLTRGLGDMVSLCPAMIIDDEQIDDLMTRMGLALDDTLAWARAQGHVG
B8: PP4421: aminotransferase (AT) from Pseudomonas putida (protein)
chain: MDKQKQDLISQQDRGAVLHPFTQLKDFASGKAGDPTIIETAKGITITDATGREYIDGFAGLYCMNVGYGRTEVAEAISKQAHKLAYYHTYAAHTTEELARLSDRLVKMAPGKMSKVFYGMSGSDANETQAKLVWYYNNLRGKPNKKKIIARERGYHGCSVVSGSMTGMSFYHDHMDLPIAGILRTGAPHYYWGAEPGETELEFSARRARELEELILREGPDTIGAFIAEPVLGTGGITPPPEGYWAAVQPVLKKYDILLIADEVITGFGRTGAMFGCDKYGIEPDLITVAKGLTSAYAPLSASIVGEKVYKVMEEGADRVGAFSHGYTYSGHPIGVAAANAVLDIVEGENIPAHVDKVGQYFQKSMQETFSSLPIVGEVRGVGMMAAIEFVADPATKKRFDPALKVGARISKAARDRNLIARAMPHGEILGFAPPLVTTEQEVDRIISIAHEAVLSVLDELKV
B9: SCO5676: aminotransferase (AT) from Streptomyces coelicolor (protein)
chain: MTALPQERRVVTAIPGPKSQELQARRTAVVAQGVGSTLPVFVARAGGGVIEDVDGNRLIDFGSGIAVTSVGASAEAVVRKASAQLADFTHTCFMVTPYEGYVAVAEALAELTPGDHAKKSALFNSGAEAVENAVKIARAYTKRQAVVVFDHGYHGRTNLTMALTAKNMPYKHGFGPFAPEVYRVPVAYGYRWPTGAENAGPEAAAQAIDQISKQVGAENVAAVIIEPVLGEGGFIEPAKGFLPAIREFASDNGIVFVADEIQSGFCRTGQWFACEDEGIVPDLITTAKGIAGGLPLSAVTGRAEIMDAAHSGGLGGTYGGNPVACAGALGAIETMKELDLNARAKDIEAVMKSRLAAMAEKFDVIGDVRGRGAMIAIELVKDRETKEPNPAATAALAKACHQEGLLVLTCGTYGNVLRFLPPLVIGEDLLNEGLDIIEQAFTRV
B10: SM2011_c01534: aminotransferase (AT) from Sinorhizobium meliloti (protein)
chain: MSNRLNTTPNDLSAFWMPFTANRQFKKEPRLFVGAKDMYYTTHDGRTVLDGTAGLWCVNAGHCRPKITEAIREQAGELDYAPAFQLGHPKAFELANRLVDIAPEGMNHVLYTNSGSESVDTALKVALAYHRAKGNGSRFRLIGRERGYHGVNFGGISVGGIVANRKMFGTLLTGVDHLPHTHLPAKNAFSRGEPEHGADLAAELERIVTLHDASTVAAVIVEPVAGSTGVLIPPKGYLQKLREICTKHGILLIFDEVITGYGRLGTPFAAQYFDVKPDIITTAKGLTNGVIPMGAVFVTSEIHDAFMTGPEHLIEFFHGYTYSGNPIASAAALGTLDTYREEGLLTRAAELAPYWEEALHSLKDCPHVIDIRNIGLIGAVELEPIAGEPTKRAFSAFLKAYEKGLLIRTTGDIIALSPPLIIEKRQIDELFDKLRDVLKNNI
B11: SAV2583: aminotransferase (AT) from Streptomyces avermitilis (protein)
chain: MSALPQERRVVTAIPGPKSQELQARRTAVVAAGVGSVLPVFTTRAGGGIIEDVDGNRLIDFGSGIAVTSVGASAEAVVRRASAQLQDFTHTCFMVTPYEGYVAVAEALAELTPGDHAKKSALFNSGAEAVENAVKIARAYTKRQAVVVFDHGYHGRTNLTMALTAKNMPYKNGFGPFAPEVYRVPVAYGYRWLTGPENAGAEASAQAIDMINKQIGADNVAAIIIEPVLGEGGFIEPAKGFLPAISKFAKDNGIVFVADEIQSGFCRTGQWFACEDEGIVPDLITTAKGIAGGLPLAAVTGRAEIMDAAHAGGLGGTYGGNPVACAGALGAIETMKELDLNAKAKNIEAVMKARLGAMAEKFDIIGDVRGRGGMIAIELVKDRDTKEPNPEAAGALAKACHQEGLLVLTCGTYGNVLRFLPPLVIGEDLLNEGLDIIEQAFSRI
B12: SM2011_c04388: aminotransferase (AT) from Sinorhizobium meliloti (protein)
chain: MNAHNKPNAPVLDSYWMPFTANRQFKAAPRLLAAAEGMHYTSVDGRTVLDGTAGLWCVNAGHGRRQIAAAVERQLSTMDFAPSFQMGHPIAFDFAERLAEIAPGPAGAKLDRVFFTGSGSESVDTALKMALAYQRSIGQGTRTRLIGRERGYHGVGFGGISVGGIVNNRRVFPQLPGSDHLRHTHDPAKNAFVKGQPEHGAELADDLERLVALHGAETIAACIVEPVAGSTGVLIPPKGYLERLRAICDKHGILLIFDEVITGFGRLGAAFATDYFGVTPDIVTTAKGLTNGAIPMGAVFASRKVHDALMHGPEGQIELFHGYTYSGHPAACAAGIATLDIYRDEGLMTRAAEIEGDWHEAMHSMKGLPHVIDIRTIGLIAGIELQSRDGAPGARAYDVFVDCFERGLLIRVTGDIIAFSPPLIAEKQHFGEIVSILADALKRVK

Assay: AR reductase activity, NAD(P)H oxidation at 340 nm
Format: biochemical
Conditions: 10 mM, 1.8% DMSO; ND = no activity was detected
Procedure: Enzyme activity of purified ARs was measured spectrophotometrically in 96-well plates Reaction mixtures contained 100 mM HEPES buffer (pH 7.5), 0.4 mM NADH/NADPH, 10 mM adipaldehyde or butylaldehyde, and proteins (10 μg for adipaldehyde screen, 2 μg for butyraldehyde screen) in a final volume of 200 μL Reaction mixture for adipaldehyde screening contained 1.8% DMSO. Enzyme reactions were monitored by following the decrease in absorbance at 340 nm (ε340 nm=6,220/M·cm) due to oxidation of NAD(P)H to NAD(P)+.

For B1, the “Activity [U/mg protein] Adipaldehyde” value was 0.362 ± 0.05 U/mg protein.

Same assay, conditions: 10 mM; ND = no activity was detected

B2 and B1 are within error of each other in “Activity [U/mg protein] Butyraldehyde” value: 0.110 ± 0.089 U/mg protein for the first, 0.892 ± 0.847 U/mg protein for the second.

Compared with B3, B4 is higher in “Activity [U/mg protein] Butyraldehyde” value: 0.116 ± 0.031 U/mg protein for the first, 1.055 ± 0.43 U/mg protein for the second.

B5 and B6 are within error of each other in “Activity [U/mg protein] Butyraldehyde” value: 0.124 ± 0.042 U/mg protein for the first, 0.188 ± 0.142 U/mg protein for the second.

Assay: AT activity coupled with alanine and glutamate dehydrogenases
Format: biochemical
Conditions: 10 mM adipaldehyde, alanine and glutamate amino-donors; ND = no activity was detected

Going from B7 to B8, the “Adipaldehyde 10 mM U/mg” value falls from 0.106 ± 0.008 U/mg to 0.061 ± 0.001 U/mg.

Compared with B9, B10 is lower in “Adipaldehyde 10 mM U/mg” value: 0.084 ± 0.015 U/mg for the first, 0.021 ± 0.003 U/mg for the second.

First: B11
Second: B12
The “Adipaldehyde 10 mM U/mg” value of the first is lower: 0.136 ± 0.011 U/mg for the first, 0.152 ± 0.001 U/mg for the second.
